Values of other authors, collected in article PMC9598996.

Tests used:
[1] = molecular target: Cys67 (UniProt position 567, ILIEICGHKAI); conditions: native (folded) enzyme, cysteines reduced
[2] = molecular target: Cys95 (UniProt position 595, LTQIGCTLNFP); conditions: native (folded) enzyme, cysteines reduced

Substance: HIV-1 protease (retropepsin) (Human immunodeficiency virus type 1)
- pKa [1]: about 6
- pKa [2]: about 6
